Assays:
[1] = biological target: RELA (p65) subunit of heterodimer;p52 subunit (Homo sapiens;Homo sapiens) (UniProt Q04206+Q00653); assay: footprint; settings: UV laser footprinting: 10 mM Tris pH 7.4, 75 mM NaCl, 1 mM EDTA, 1 mM DTT, 200 ug/ml BSA, 0.005% NP-40; microarray buffer in Additional file 1 (not seen); low values mean tight binding
[2] = biological target: RELA (p65) subunit of heterodimer;p50 subunit (Homo sapiens;Homo sapiens) (UniProt Q04206+P19838); assay: footprint; settings: UV laser footprinting: 10 mM Tris pH 7.4, 75 mM NaCl, 1 mM EDTA, 1 mM DTT, 200 ug/ml BSA, 0.005% NP-40; microarray buffer in Additional file 1 (not seen); low values mean tight binding
[3] = tested on: RELA (p65) subunit of heterodimer;p50 subunit (Homo sapiens;Homo sapiens); assay: EMSA-Seq; settings: Footprinting/EMSA: 10 mM Tris pH 7.4, 75 mM NaCl, 1 mM EDTA, 1 mM DTT, 200 ug/ml BSA, 0.005% NP-40, EMSA-Seq: 12 mM HEPES pH 7.8, 75 mM KCl, 4 mM …
[4] = tested on: RELA (p65) subunit of heterodimer;p52 subunit (Homo sapiens;Homo sapiens); assay: EMSA-Seq; settings: Footprinting/EMSA: 10 mM Tris pH 7.4, 75 mM NaCl, 1 mM EDTA, 1 mM DTT, 200 ug/ml BSA, 0.005% NP-40, EMSA-Seq: 12 mM HEPES pH 7.8, 75 mM KCl, 4 mM …
[5] = tested on: RELARELA (p65 homodimer) (Homo sapiens); assay: EMSA-Seq; settings: Footprinting/EMSA: 10 mM Tris pH 7.4, 75 mM NaCl, 1 mM EDTA, 1 mM DTT, 200 ug/ml BSA, 0.005% NP-40, EMSA-Seq: 12 mM HEPES pH 7.8, 75 mM KCl, 4 mM …
[6] = tested on: RELA (p65) subunit of heterodimer;p50 subunit (Homo sapiens;Homo sapiens); assay: UV laser footprinting; settings: Footprinting/EMSA: 10 mM Tris pH 7.4, 75 mM NaCl, 1 mM EDTA, 1 mM DTT, 200 ug/ml BSA, 0.005% NP-40, EMSA-Seq: 12 mM HEPES pH 7.8, 75 mM KCl, 4 mM …
[7] = tested on: RELA (p65) subunit of heterodimer;p52 subunit (Homo sapiens;Homo sapiens); assay: UV laser footprinting; settings: Footprinting/EMSA: 10 mM Tris pH 7.4, 75 mM NaCl, 1 mM EDTA, 1 mM DTT, 200 ug/ml BSA, 0.005% NP-40, EMSA-Seq: 12 mM HEPES pH 7.8, 75 mM KCl, 4 mM …
[8] = biological target: RELARELA (p65 homodimer) (Homo sapiens) (UniProt Q04206); assay: footprint; settings: UV laser footprinting: 10 mM Tris pH 7.4, 75 mM NaCl, 1 mM EDTA, 1 mM DTT, 200 ug/ml BSA, 0.005% NP-40; microarray buffer in Additional file 1 (not seen); low values mean tight binding
[9] = tested on: RELA (p65) subunit of heterodimer;p50 subunit (Homo sapiens;Homo sapiens); assay: protein binding microarray; settings: Footprinting/EMSA: 10 mM Tris pH 7.4, 75 mM NaCl, 1 mM EDTA, 1 mM DTT, 200 ug/ml BSA, 0.005% NP-40, EMSA-Seq: 12 mM HEPES pH 7.8, 75 mM KCl, 4 mM …
[10] = tested on: RELA (p65) subunit of heterodimer;p52 subunit (Homo sapiens;Homo sapiens); assay: protein binding microarray; settings: Footprinting/EMSA: 10 mM Tris pH 7.4, 75 mM NaCl, 1 mM EDTA, 1 mM DTT, 200 ug/ml BSA, 0.005% NP-40, EMSA-Seq: 12 mM HEPES pH 7.8, 75 mM KCl, 4 mM …
[11] = tested on: RELARELA (p65 homodimer) (Homo sapiens); assay: protein binding microarray; settings: Footprinting/EMSA: 10 mM Tris pH 7.4, 75 mM NaCl, 1 mM EDTA, 1 mM DTT, 200 ug/ml BSA, 0.005% NP-40, EMSA-Seq: 12 mM HEPES pH 7.8, 75 mM KCl, 4 mM …
[12] = tested on: RELARELA (p65 homodimer) (Homo sapiens); assay: UV laser footprinting; settings: Footprinting/EMSA: 10 mM Tris pH 7.4, 75 mM NaCl, 1 mM EDTA, 1 mM DTT, 200 ug/ml BSA, 0.005% NP-40, EMSA-Seq: 12 mM HEPES pH 7.8, 75 mM KCl, 4 mM …

Sequence of RELA (p65) subunit of heterodimer;p50 subunit (Homo sapiens;Homo sapiens) (UniProt Q04206+P19838) (Q04206 1-307, chain 1 of 2): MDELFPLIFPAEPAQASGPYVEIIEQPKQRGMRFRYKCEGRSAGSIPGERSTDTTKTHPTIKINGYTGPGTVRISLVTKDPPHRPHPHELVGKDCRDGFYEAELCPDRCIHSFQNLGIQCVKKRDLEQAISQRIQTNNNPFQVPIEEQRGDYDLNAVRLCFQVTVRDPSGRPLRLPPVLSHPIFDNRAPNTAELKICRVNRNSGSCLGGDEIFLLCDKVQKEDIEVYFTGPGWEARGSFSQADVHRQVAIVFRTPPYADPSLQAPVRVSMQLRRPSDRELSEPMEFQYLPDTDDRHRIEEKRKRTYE
Sequence of RELA (p65) subunit of heterodimer;p50 subunit (Homo sapiens;Homo sapiens) (UniProt Q04206+P19838) (P19838 7-356, chain 2 of 2): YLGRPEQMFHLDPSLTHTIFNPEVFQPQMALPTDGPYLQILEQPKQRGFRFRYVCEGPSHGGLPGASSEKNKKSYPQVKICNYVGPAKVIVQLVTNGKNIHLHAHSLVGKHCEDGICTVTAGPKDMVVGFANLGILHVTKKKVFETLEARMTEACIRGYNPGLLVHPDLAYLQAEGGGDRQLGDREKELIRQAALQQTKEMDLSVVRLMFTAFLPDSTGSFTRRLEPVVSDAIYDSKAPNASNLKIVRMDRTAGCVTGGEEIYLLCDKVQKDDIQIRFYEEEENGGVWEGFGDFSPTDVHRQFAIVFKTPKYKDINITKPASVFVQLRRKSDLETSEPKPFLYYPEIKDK
Sequence of RELA (p65) subunit of heterodimer;p52 subunit (Homo sapiens;Homo sapiens) (UniProt Q04206+Q00653) (Q04206 1-307, chain 1 of 2): as the sequence (Q04206 1-307, chain 1 of 2) above
Sequence of RELA (p65) subunit of heterodimer;p52 subunit (Homo sapiens;Homo sapiens) (UniProt Q04206+Q00653) (Q00653 4-332, chain 2 of 2): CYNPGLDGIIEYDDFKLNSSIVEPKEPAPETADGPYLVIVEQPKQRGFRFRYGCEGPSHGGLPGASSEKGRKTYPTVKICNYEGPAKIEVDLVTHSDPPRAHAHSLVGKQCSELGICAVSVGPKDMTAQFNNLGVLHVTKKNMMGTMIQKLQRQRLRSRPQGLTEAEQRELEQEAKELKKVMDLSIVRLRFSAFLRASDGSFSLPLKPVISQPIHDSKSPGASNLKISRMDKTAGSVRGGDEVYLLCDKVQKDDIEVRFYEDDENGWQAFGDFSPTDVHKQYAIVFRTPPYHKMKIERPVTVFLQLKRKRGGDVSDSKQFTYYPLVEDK
Sequence of RELARELA (p65 homodimer) (Homo sapiens) (UniProt Q04206) (Q04206 1-307): as the sequence (Q04206 1-307, chain 1 of 2) above

| Sequence | binding signal [3] | binding signal [4] | Kd [6] | Kd [7] | other results |
| --- | --- | --- | --- | --- | --- |
| AGGGGGATCTG (double strand) |  |  |  |  | binding signal (Kd, unit not seen) [1]: 2; binding signal (Kd, unit not seen) [2]: 10.5 |
| CTGGGGATTTA 11-mer in EMSA-Seq ligands | 24.2 z-score | 19.5 z-score |  |  | binding signal [5]: 10.8 z-score |
| CTGGGGATTTA footprint probe |  |  | 16 nM | 13.8 nM |  |
| AGGAAATTCCG (double strand) |  |  |  |  | binding signal (Kd, unit not seen) [1]: 1.7; binding signal (Kd, unit not seen) [2]: 4.6; binding signal (Kd, unit not seen) [8]: 3.25 |
| AGGAAATTCCG microarray probes |  |  |  |  | binding signal [9]: 1.2 z-score; binding signal [10]: 0.55 z-score; binding signal [11]: 3.7 z-score |
| AGGAAATTCCG footprint probe |  |  | 4.6 nM | 1.7 nM | Kd [12]: 3.25 nM |
| AGGGGGATCTG microarray probes |  |  |  |  | binding signal [9]: 2.39 z-score; binding signal [10]: 1.76 z-score |
| AGGGGAAGTTA footprint probe |  |  | 26 nM | 20 nM |  |
| AGGGGGATCTG footprint probe |  |  | 10.5 nM | 2 nM |  |
| AGGAAATTCCG 11-mer in EMSA-Seq ligands | 20.4 z-score | 13 z-score |  |  | binding signal [5]: 40.9 z-score |
| AGGGGGATCTG 11-mer in EMSA-Seq ligands | 23.1 z-score | 18.4 z-score |  |  |  |
| AGGGGAAGTTA 11-mer in EMSA-Seq ligands | 35.4 z-score | 27.5 z-score |  |  | binding signal [5]: 3.78 z-score |
